Laboratory results as given in patent publication US20250325630A1, “HOMODIMER FUSION PROTEINS FOR TREATING ATOPIC DERMATITIS” (Intervet Inc., priority 2021, published 2025).

T1: canine IL-4 (cIL-4) (Canis lupus familiaris, UniProt O77762)
T1 sequence (O77762 25-132): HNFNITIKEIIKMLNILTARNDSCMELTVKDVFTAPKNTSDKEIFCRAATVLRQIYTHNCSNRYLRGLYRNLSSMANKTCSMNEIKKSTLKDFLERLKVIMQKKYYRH

T2: canine IL-13 (cIL-13) (Canis lupus familiaris, UniProt Q9N0W9)
T2 sequence (Q9N0W9 19-131): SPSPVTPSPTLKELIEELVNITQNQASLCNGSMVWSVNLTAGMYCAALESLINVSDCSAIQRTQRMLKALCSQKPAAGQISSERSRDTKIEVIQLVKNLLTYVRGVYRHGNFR


Tests used:
[1] = test system: cIL-13 mediated STAT6 phosphorylation; test: Inhibition of cIL-13 mediated STAT6 phosphorylation in DH82 cells (AlphaLISA p-STAT6); assay type: cell-based, canine; conditions: for concentration inhibiting 50% of the cIL-13 mediated STAT6 phosphorylation (in words): DH82 cells
Protocol: The ability of the cFc fusion proteins to block the signaling mediated by IL-4 and IL-13, as measured by inhibition of STAT-6 phosphorylation in DH82 cells, were determined as follows:
• 1. Actively growing DH82 cells: Merck Animal Health Lot: 628-011, 24Oct14 • 2. HBSS, 1×: Corning, Catalog 21-022-CM • 3. AlphaLISA p-STAT6 (Tyr641) Assay Kit: Perkin Elmer, Catalog ALSU-PST6-A10K • 4. Recombinant canine IL-4: R&D Systems, Catalog: 752-CL/CF • 5a. cFc fusion protein samples for IL-4 studies • (i) cIL4Rα-cFc • (ii) cIL4Rα-IL13Rα1 ZW1-cFc • (iii) cIL4Rα-IL13Rα2 ZW1-cFc • 5b. cFc fusion protein samples for IL-13 studies: • (i) CIL13Rα1-cFc • (ii) cIL13Rα2-cFc • (iii) cIL4R-IL13Rα1 ZW1-cFc • (iv) cIL4R-IL13Rα2 ZW1-cFc • 6. Perkin Elmer® Envision
• 1. Tissue culture plates were seeded with […] DH82 cells per well (40 μL with the density of 2.5×10^5 cells/mL) and incubated at 37° C. for 2 hours. • 2. The cFc fusion proteins were pre-diluted to 2000 nM (500 nM final concentration in the well) and then 3-fold serially diluted in Hank's Balanced Salt Solution (HBSS). The proteins were added by transferring 20 μL/well to the respective locations on the tissue culture plates containing DH82 cells. • 3. (a) Canine IL-4 was diluted to 10 ng/ml in HBSS (2.5 ng/ml in the well) and 20 μL was added to each well of the plates. The plates were incubated for 15 min at 37° C.; or alternatively • (b) Canine IL-13 was diluted to 20 ng/ml in HBSS (5 ng/ml in the well) and 20 μL was added to each well of the plates. The plates were incubated for 15 min at 37° C. • 4. The plates were removed from the incubator and 20 μL of 4× Lysis buffer from the AlphaLISA® p-STAT-6 Assay Kit was added to each well of the plate. The plate was agitated on a plate shaker with 350 rpm for 10 minutes at room temperature. • 5. The Acceptor Mix was prepared from the AlphaLISA® p-STAT6 Assay Kit and 15 μL per well was added to 30 μL of the cell lysate in 96-well ½ Area Plates. The plates were sealed, agitated for 2 minutes at 350 rpm, and then incubated for 1 hour at room temperature. • 6. The Donor Mix was prepared from the AlphaLISA® p-STAT6 Assay kit under subdued laboratory lighting and 15 μL per well was added to each plate. The plates were sealed, covered with foil, agitated for 2 minutes at 350 rpm, and then incubated for 1 hour at room temperature. • 7. The plates were read using the AlphaScreen settings on the Perkin Elmer® En Vison.

canine IL-4 (cIL-4) = molecular target: T1, canine IL-4 (cIL-4); test: Binding kinetics of cFc fusion proteins to canine IL-4 (OCTET HTX); conditions: for ka / kdis: Table 3, cIL-4, ND = Binding Not Detected; for ka: association rate constant; for kdis: dissociation rate constant; for Kd: approximate values, read-out: binding constant (KD) with cIL-4
Protocol: (§1) The binding constants for the cFc fusion proteins provided in Tables 3 and 4 below, were determined using OCTET® HTX. All kinetics measurements were performed by OCTET® HTX using SA® biosensors and DATA ACQUISITION® 12.0 software. 10 μg/mL of biotin-labeled antigen, either canine IL-4 (cIL-4) or canine IL-13 (cIL-13) were loaded onto the SAR biosensors for 120 seconds. Next, the biosensors were placed into 1×pH 7.0 TBS/Casein buffer for 60 seconds for the blocking phase. For the association phase, antigen loaded biosensors were placed into 2-fold serial dilutions from 1 μM down to 15.6 nM of the wild-type, the bispecific, or the FcRn-mutant receptor Fc-fusions that recognized the cIL-4 or cIL-13 antigen in 1×pH 7.0 TBS/Casein buffer for 30 seconds. The last well was buffer alone and that sensor was used for reference sensor subtraction. Finally, the biosensors were placed into 1×pH 7.0 TBS/Casein buffer for 120 seconds for the dissociation phase. The results were then analyzed using Data Analysis 12.0 software and the curves were fitted using a 1:1 binding model.

canine IL-13 (cIL-13) = molecular target: T2, canine IL-13 (cIL-13); test: Binding kinetics of cFc fusion proteins to canine IL-13 (OCTET HTX); conditions: Table 4, cIL-13; for ka: association rate constant; for kdis: dissociation rate constant
Protocol: as §1

Row | Molecule | IC50 for cIL-13 mediated STAT6 phosphorylation, fold higher than for cIL-13Rα2-cFc [1] | concentration inhibiting 50% of the cIL-13 mediated STAT6 phosphorylation (in words) [1] | loss in affinity for cIL-4 (KD times higher) relative to unmodified cIL-4Rα-cFc homodimer (canine IL-4 (cIL-4)) | ka (canine IL-4 (cIL-4)) [M⁻¹ s⁻¹] | kdis (canine IL-4 (cIL-4)) [s⁻¹] | ka (canine IL-13 (cIL-13)) [M⁻¹ s⁻¹] | kdis (canine IL-13 (cIL-13)) [s⁻¹] | Kd (canine IL-4 (cIL-4)) [nM]
1 | cIL4Rα-IL13Rα1_ZW1-cFc: bispecific heterodimer of cIL-4Rα-cIgGB-Fc-ZW-A (SEQ ID NO: 18) and cIL-13Rα1-cIgGB-Fc-ZW-B (SEQ ID NO: 19) (protein, heterodimer) chain 1: VKVLHEPSCFSDYISTSVCQWKMDHPTNCSAELRLSYQLDFMGSENHTCVPENREDSVCVCSMPIDDAVEADVYQLDLWAGQQLLWSGSFQPSKHVKPRTPGNLTVHPNISHTWLLMWTNPYPTENHLHSELTYMVNVSNDNDPEDFKVYNVTYMGPTLRLAASTLKSGASYSARVRAWAQTYNSTWSDWSPSTTWLNYYEPWEQHLPPKRENGRVPRPPDCPKCPAPEMLGGPSVFIFPPKPKDTLLIARTPEVTCVVVDLDPEDPEVQISWFVDGKQMQTAKTQPREEQFNGTYRVVSVLPIGHQDWLKGKQFTCKVNNKALPSPIERTISKARGQAHQPSVYVYPPSREELSKNTVSLTCLIKDFFPPDIDVEWQSNGQQEPESKYRTTPPQLDEDGSYALVSKLSVDKSRWQRGDTFICAVMHEALHNHYTQESLSHSPGK chain 2: GGVAAPTETQPPVTNLSVSVENLCTVIWTWDPPEGASPNCTLRYFSHFDNKQDKKIAPETHRSKEVPLNERICLQVGSQCSTNESDNPSILVEKCTPPPEGDPESAVTELQCVWHNLSYMKCTWLPGRNTSPDTNYTLYYWHSSLGKILQCEDIYREGQHIGCSFALTNLKDSSFEQHSVQIVVKDNAGKIRPSFNIVPLTSHVKPDPPHIKRLFFQNGNLYVQWKNPQNFYSRCLSYQVEVNNSQTETNDIFYVEEAKCQNSEFEGNLEGTICFMVPGVLPDTLNTVRIRVRTNKLCYEDDKLWSNWSQAMSIGENTDPTPKRENGRVPRPPDCPKCPAPEMLGGPSVFIFPPKPKDTLLIARTPEVTCVVVDLDPEDPEVQISWFVDGKQMQTAKTQPREEQFNGTYRVVSVLPIGHQDWLKGKQFTCKVNNKALPSPIERTISKARGQAHQPSVYVLPPSREELSKNTVSLLCLIKDFFPPDIDVEWQSNGQQEPESKYLTWPPQLDEDGSYFLYSKLSVDKSRWQRGDTFICAVMHEALHNHYTQESLSHSPGK | about 20 fold | well above nanomolar concentrations | about 10,000 fold | 237000 | 0.00234 | 94400 | 3.91e-05 | –
2 | cIL-13Rα1-cFc: homodimer of canine IL-13Rα1 ECD, IgGB hinge region and IgGB cFc fusion protein, SEQ ID NO: 6 (protein, homodimer) GGVAAPTETQPPVTNLSVSVENLCTVIWTWDPPEGASPNCTLRYFSHFDNKQDKKIAPETHRSKEVPLNERICLQVGSQCSTNESDNPSILVEKCTPPPEGDPESAVTELQCVWHNLSYMKCTWLPGRNTSPDTNYTLYYWHSSLGKILQCEDIYREGQHIGCSFALTNLKDSSFEQHSVQIVVKDNAGKIRPSFNIVPLTSHVKPDPPHIKRLFFQNGNLYVQWKNPQNFYSRCLSYQVEVNNSQTETNDIFYVEEAKCQNSEFEGNLEGTICFMVPGVLPDTLNTVRIRVRTNKLCYEDDKLWSNWSQAMSIGENTDPTPKRENGRVPRPPDCPKCPAPEMLGGPSVFIFPPKPKDTLLIARTPEVTCVVVDLDPEDPEVQISWFVDGKQMQTAKTQPREEQFNGTYRVVSVLPIGHQDWLKGKQFTCKVNNKALPSPIERTISKARGQAHQPSVYVLPPSREELSKNTVSLTCLIKDFFPPDIDVEWQSNGQQEPESKYRTTPPQLDEDGSYFLYSKLSVDKSRWQRGDTFICAVMHEALHNHYTQESLSHSPGK | – | well above nanomolar concentrations | – | – | – | 58000 | 0.000312 | –
3 | cIL-4Rα-cFc-H: cIL-4Rα-cIgGB-Fc with N202H half-life substitution, SEQ ID NO: 11 (protein, homodimer) VKVLHEPSCFSDYISTSVCQWKMDHPTNCSAELRLSYQLDFMGSENHTCVPENREDSVCVCSMPIDDAVEADVYQLDLWAGQQLLWSGSFQPSKHVKPRTPGNLTVHPNISHTWLLMWTNPYPTENHLHSELTYMVNVSNDNDPEDFKVYNVTYMGPTLRLAASTLKSGASYSARVRAWAQTYNSTWSDWSPSTTWLNYYEPWEQHLPPKRENGRVPRPPDCPKCPAPEMLGGPSVFIFPPKPKDTLLIARTPEVTCVVVDLDPEDPEVQISWFVDGKQMQTAKTQPREEQFNGTYRVVSVLPIGHQDWLKGKQFTCKVNNKALPSPIERTISKARGQAHQPSVYVLPPSREELSKNTVSLTCLIKDFFPPDIDVEWQSNGQQEPESKYRTTPPQLDEDGSYFLYSKLSVDKSRWQRGDTFICAVMHEALHHHYTQESLSHSPGK | – | – | about 10 fold | 785000 | 9.88e-05 | – | – | 0.1
4 | cIL-4Rα-cFc-YTE: cIL-4Rα-cIgGB-Fc with L18Y/A20T/T22E half-life substitutions, SEQ ID NO: 8 (protein, homodimer) VKVLHEPSCFSDYISTSVCQWKMDHPTNCSAELRLSYQLDFMGSENHTCVPENREDSVCVCSMPIDDAVEADVYQLDLWAGQQLLWSGSFQPSKHVKPRTPGNLTVHPNISHTWLLMWTNPYPTENHLHSELTYMVNVSNDNDPEDFKVYNVTYMGPTLRLAASTLKSGASYSARVRAWAQTYNSTWSDWSPSTTWLNYYEPWEQHLPPKRENGRVPRPPDCPKCPAPEMLGGPSVFIFPPKPKDTLYITREPEVTCVVVDLDPEDPEVQISWFVDGKQMQTAKTQPREEQFNGTYRVVSVLPIGHQDWLKGKQFTCKVNNKALPSPIERTISKARGQAHQPSVYVLPPSREELSKNTVSLTCLIKDFFPPDIDVEWQSNGQQEPESKYRTTPPQLDEDGSYFLYSKLSVDKSRWQRGDTFICAVMHEALHNHYTQESLSHSPGK | – | – | ~100 fold | 830000 | 9.23e-06 | – | – | 0.01
5 | cIL-4Rα-cFc: homodimer of canine IL-4Rα ECD, IgGB hinge region and IgGB cFc fusion protein, SEQ ID NO: 5 (protein, homodimer) VKVLHEPSCFSDYISTSVCQWKMDHPTNCSAELRLSYQLDFMGSENHTCVPENREDSVCVCSMPIDDAVEADVYQLDLWAGQQLLWSGSFQPSKHVKPRTPGNLTVHPNISHTWLLMWTNPYPTENHLHSELTYMVNVSNDNDPEDFKVYNVTYMGPTLRLAASTLKSGASYSARVRAWAQTYNSTWSDWSPSTTWLNYYEPWEQHLPPKRENGRVPRPPDCPKCPAPEMLGGPSVFIFPPKPKDTLLIARTPEVTCVVVDLDPEDPEVQISWFVDGKQMQTAKTQPREEQFNGTYRVVSVLPIGHQDWLKGKQFTCKVNNKALPSPIERTISKARGQAHQPSVYVLPPSREELSKNTVSLTCLIKDFFPPDIDVEWQSNGQQEPESKYRTTPPQLDEDGSYFLYSKLSVDKSRWQRGDTFICAVMHEALHNHYTQESLSHSPGK | – | – | – | 703000 | 8.3e-07 | – | – | –
